We go through 1 substance from patent publication US20250369044.

Data set [1] relates to MBP-1 (His-tagged Maltose Binding Protein with C-terminal leader: polyglycine stall, polyarginine capture, ssrA recognition motif).
For data set [2], the system named is MBP-C chemically tagged on its C-terminal cysteine with the maleimide Peptide-2 tag.
The subject of data set [3] is C-MBP dimer (MBP variant with a cysteine on the third residue, disulfide-linked N-terminus to N-terminus homodimer).
Data set [4] relates to mNG-alpha_helix (mNG with an alpha-helical blocking domain and ssrA tag).
Data set [5] deals with mNG-beta_hairpin (mNG with a hairpin blocking domain and ssrA tag).
Data set [6] relates to mNG-HTH (mNG with a helix-turn-helix blocking domain and ssrA tag).
The subject of data set [7] is {MBP}-{MBP-1}, genetic fusion protein of two MBP proteins (805 amino acids, 88 kDa).

For the substance “E. coli ClpX, N-terminal truncated variant (residues 61-423)”, in data set [1], the “ClpX controlled translocation with 1M KGlu in cis and 1 M KCl in trans” value was “ClpX controlled MBP-1 translocations were obtained from CytK 4D2E nanopores systems with 1M KGlu in the cis and 1 M KCl in trans”; the “ClpX-controlled translocation of MBP-1 through the nanopore (ionic current)” value is “clear and consistent capture and subsequent ClpX-controlled translocation of MBP-1 was observed”; the “rate of ClpX translocating along the polypeptide” value is “about 12-15 aa/second in these conditions”; the “trans-to-cis ClpX controlled translocation (ionic current)” value was “characteristic ClpX controlled MBP-1 translocation events occurred trans-to-cis”. Further, in data set [1], the “translocation with 2.5 mM Gamma-S-ATP in place of ATP” value is on record as “long blockades that never progressed to the changing current levels phase associated with ClpX translocase controlled movement of polypeptide that was observed under regular ATP conditions”. Also, the “ClpX controlled translocation of tagged MBP (ionic current)” value in data set [2] is given as “ClpX controlled MBP translocations (marked by arrows) are evident from the characteristic pattern of changing ionic current signals”. In addition, in data set [3], the “nanopore read of the disulfide-linked dimer with ClpX and ATP in cis” value was “After reading the first monomer of C-MBP, the unfoldase was able to pass through the disulfide bond, after which it reads the second C-MBP monomer in the N- to C-terminus direction”. For the same substance, the “fluorescence over time at 37° C. after adding ClpX and ATP” value (shortened to “fluorescence over time”) in data set [4] is reported as “no decrease in fluorescence”. The “fluorescence over time” value in data set [5] is on record as “no decrease in fluorescence”. The “fluorescence over time” value in data set [6] is on record as “no decrease in fluorescence”. The “full length single-molecule reads with ClpX and ATP in cis” value in data set [7] was “full length reads of the protein were reliably obtained”.
